Measurements published in patent publication US20230374161A1 (Stanford University, published 2023).

Biological target: human NKG2A (human, UniProt P26715 94-233, limits assumed)
Assay: not stated; drawn table 'Binding affinity of anti-NKG2A scFv to human NKG2A', column 'Binding affinity, KD (M)'

Sequence of human NKG2A (P26715 94-233 limits assumed): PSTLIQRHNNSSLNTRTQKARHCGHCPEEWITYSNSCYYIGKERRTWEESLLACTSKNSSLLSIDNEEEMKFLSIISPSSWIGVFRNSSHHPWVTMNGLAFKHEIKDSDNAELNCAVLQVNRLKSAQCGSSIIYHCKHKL

B1: murine anti-NKG2A scFv (scFv)
scFv: QVQLQQPGAELVRPGASVKLSCKASGYTFTSYWMNWVKQRPEQGLQWIGRIDPYDSETHYSQKFKDKAILTVDKSSSTAYMRLSSLTSEDSAVYYCARGGYDFDVGTLYWFFDVWGAGTTVTVSSGGSTRSSSSGGGGSGGGGDIQMTQSPASLSASVGETVTITCRASENIYSYLAWYQQKQGKSPQFLVYNAKTLAEGVPSRFSGSGSGTQFSLKINSLQPEDFGSYYCQHHYGTPRTFGGGTKLEIKAAAHHHHHHHH
notes: Derived from the VH and VL of murine antibody Z270 (U.S. Pat. No. 9,683,041), expressed in Hi5 cells, purified on Ni-NTA; also called αNKG2A-scFv
- Kd: 0.0665 nM
